Experiment: soluble on expression in E. coli; label from the status in PepcDB or PDB records

Row | Sequence | soluble on expression in E. coli
1 | KKEQEQMLKEERKRELEEKVKAVEDRAKRRKLREERAWLLAQGKELPPELSHLDPNSPMREEKKTKDLFELDDDFTAMYKVLDVVKAHKDSWPFLEPVDESYAPNYYQIIKAPMDISSMEKKLNGGLYCTKEEFVNDMKTMFRNCRKYNGESSEYTKMSDNLERCFHRAMMKHFPGEDGDTDEEFWIREDEKREKRRSRAGRSGGSHVWTRSRDPEGSSRKQQPMENGGKSLPPTRRAPSSGDDQSSSSTQPPREVGTSNGRGFSHPLHCGGTPSQAPFLNQMRPAVPGTFGPLRGSDPATLYGSSGVLEPHPGEPVQQRQPFTMQPPVGINSLRGPRLGTPEEKQMCGGLTHLSNMGPHPGSLQLGQISGPSQDGSMYAPAQFQPGFIPPRHGGAPARPPDFPESSEIPPSHMYRSYKYLNRVHSAVWNGNHGATNQGPLGPDEKPHLGPGPSHQPRTLGHVMDSRVMRPPVPPNQWTEQSGFLPHGVPSSGYMRPPCKSAGHRLQPPPVPAPSSLFGAPAQALRGVQGGDSMMDSPEMIAMQQLSSRVCPPGVPYHPHQPAHPRLPGPFPQVAHPMSVTVSAPKPALGNPGRAPENSEAQEPENDQAEPLPGLEEKPPGVGTSEGVYLTQLPHPTPPLQTDCTRQSSPQERETVGPELKSSSSESADNCKAMKGKNPWPSDSSYPGPAAQGCVRDLSTVADRGALSENGVIGEASPCGSEGKGLGSSGSEKLLCPRGRTLQETMPCTGQNAATPPSTDPGLTGGTVSQFPPLYMPGLEYPNSAAHYHISPGLQGVGPVMGGKSPASHPQHFPPRGFQSNHPHSGGFPRYRPPQGMRYSYHPPPQPSYHHYQRTPYYACPQSFSDWQRPLHPQGSPSGPPASQPPPPRSLFSDKNAMASLQGCETLNAALTSPTRMDAVAAKVPNDGQNPGPEEEKLDESMERPESPKEFLDLDNHNAATKRQSSLSASEYLYGTPPPLSSGMGFGSSAFPPHSVMLQTGPPYTPQRPASHFQPRAYSSPVAALPPHHPGATQPNGLSQEGPIYRCQEEGLGHFQAVMMEQIGTRSGIRGPFQEMYRPSGMQMHPVQSQASFPKTPTAATSQEEVPPHKPPTLPLDQS | soluble
2 | MSLAKASAESLGGTVASEESIASYIGAGILSSGGNAVDAAVATSLALTVLIPHLGGVGGDFFMLYRSPEGRVFFVNGSGFAPRRLTREEVLGRGLQEIPESGPLSPTTPGYLAGLYHSWRSFGTMEWASLVKPARLLASRGFPLPPSTARSLKLRRECLEADPGSREAVLKTLPREEGSPARLPGLAALLSGVEEDPLYLYQGEPAEALEEYLASIGGVMGAEDLAGTRGFTAEPLYSEYRGWKVWEMPPNTQGVTTLHLLMLLEEEELPEPFSPERVDILAGLARMAYSIRDRYVGDPRYMPIDPHELARKETLLKLLGQEESNGSKATGDTTFFAVADREGGIVAGIQSLFYPWGSCVTEPRFQVTLNNRARGFTLKEGLPSTLRPGAFPLHTLSSVIMEQRERVIALGASGGHLRPQQHALFVTNIVDYGMNVLDAINAPRAVWDPGRGEILCEEGFGCRPSWRKVERIGVANAVEVAGSVKRGYTDMRGDGLPAVEGHHHHHH | not soluble
3 | MTKLEVCCYSVDCAQIAEKAGADRVELCCGQSEGGVTPSVGALMQARETVTIPVHPIVRPRGGDFCYSSNDFTIMKNDIARIRDLGFAGVVVGVLDTDGHIDMPRMREIMSVSGSLAVTFHRAFDMCQNPMIALKQLAELNVARILTSGQQQNAELGLALLKDLVAATKDQGPIIMAGAGVRLTNMQKFIDAGIRELHSSAGRTVPSTMRYRKAGVTMCADSDVDEFSHYCVDGEVVEAMKSLLVMGSPLAKHT | soluble
4 | MPHMSEPQRLFFAIDLPAEIREQIIHWRATHFPPEAGRPVAADNLHLTLAFLGEVSAEKEKALSLLAGRIRQPGFTLTLDDAGQWLRSRVVWLGMRQPPRGLIQLANMLRSQAARSGCFQSNRPFHPHITLLRDASEAVTIPPPGFNWSYAVTEFTLYASSFARGRTRYTPLKRWALTQ | not soluble
5 | MSLKIHTLRLILGDQLNARHSWFREKDAGVLYVMMELKQETDYVVHHRQKVLAFFAAMRAFGNALNTSGHQVNYIKLDDDTNEQSLTQNLQQLMKKYEVTTLECQQPDEYRLDHQLKSWAGANNIHLSWFDTEHFLTGRNSLKEYFPNSENYLMETFYRRVRKQYDILMDGGRPTGGRWNYDKENQKKVPASHDVELPLIFSNDVSDIDELLRSSEIKTMGQANAAQLIWEGHHHHHH | not soluble
6 | GSSHHHHHHSFFFLSFHISNLQFNSSLEDPSTDYYQELQRDISEMFLQIYKQGGFLGLSNIKFRPG | soluble
7 | MNHLLSMEHLSTDQIYKLIQKASQFKSGERQLPNFEGKYVANLFFENSTRTKCSFEMAELKLGLKTISFETSTSSVSKGESLYDTCKTLESIGCDLLVIRHPFNNYYEKLANINIPIANAGDGSGQHPTQSLLDLMTIYEEYGYFEGLNVLICGDIKNSRVARSNYHSLKALGANVMFNSPNAWIDDSLEAPYVNIDDVIETVDIVMLLRIQHERHGLAEETRFAADDYHQKHGLNEVRYNKLQEHAIVMHPAPVNRGVEIQSDLVEASKSRIFKQMENGVYLRMAVIDELLK | not soluble
8 | MGSDKIHHHHHHLTRREVVGLKLGDLMPRDLLKQELFVQDLKSHINDNVEIILKIRSKKLQETKDSKKFLIMTLEDRTGTVRAVDWYNAELNDQRLKEGNVVRVKGRVVFFENRIQINVDNDYGAIKILKSDEYDYTKFVAQSKKDLEILKKKLFVLLDQIKDQHYKKLLKAFFENKEFSEKFFRSPAGMRVHHAYIGGLLEHSVTVAEICKEISKYYSLDRDLLITGALLHDVGKVEEYRITESGIEVTTEGELKGHIAIGAAMVREMAKKLSIPEHKILELEHIILSHHGELEWGSPVVPKTIEALIVHHVENLDSKIARFIEVMESSESNQGWTEYDRNLGRRIFLRGGGTIVSLTV | not soluble
9 | MKESMSSVDIKYITEELKDMIVGSRVEKIYHEGNEIRFKLHKTGVGRVDLLIEAGKRIHITTYVKENLQPTSFAMLLRKYLSGKFLEDIRQYEFDRVVILSFGEYFLIAELFGRGNIIFVTKDWEIIGALRYEEFKDRAIKPKIKYVFPPSRANPLKVSFEEFKEIILNSQGTEIVRALAKNFSIGGLYSEETLLRAKIDKDRKVDELSEEELRLVYDTLLTVLNDEKKPNIVYNKEGVMVDVVPIDLQWYREYTKRYYESFSEALDEYFGKLTIEKARLEKTKQLEERRKALEISLRRIEEQIKGFEKEAMTNQEKGDALYAHYSIVNEILRVISSALKQYGVEEVKKRIEEGKKAGYPWAKMIIDVTDNKVTLNLDGIKVSLDVEKSLEENAELYYERAKKAKKKLEGAKIAYEETKRKLIELEKEIERESKEINIKKITRKKKKWFE | not soluble
10 | MGSDKIHHHHHHMLEVPVDRPVEALTIALLRDVKHACAQLGAKFVLAGATARDILMWHLHDIRAPVATRDVDVAVCAVSWESHDALIELLVQTQRFRRHSKQQQKLLFKRSAEDYEGELDIVPFGQIEGPPGEIHWPPDGDIVMTVLGFQEAVDTAQPVSIGEGLVVPVVTLPAFVLLKLIAWKDRRLMKNTDSADLLFVLRNYIDAGNIERTYEQATDLLKAANFDAGLAAAGLLGRDVRGLAYPDTRAALRALLQSADAYETLRLDLQARAAMLLGGFIDDSDALLAAFARELLTEENGSLNGTGPQVGSTGARA | not soluble
11 | NNELSPVALRQMSCAAGTTQTACTDDNALAYYNNSKGGRFVLALLSDHQDLKWARFPKSDGTGTIYTELEPPCRFVTDTPKGPKVKYLYFIKGLNNLNRGMVLESLAATVRLQLEHHHHHH | soluble
12 | MGSDKIHHHHHHMNRMAGCINDHLKRYGGLAAGREDEQKRYFAEKRLYALQIETTDACQQGCIFCYAGSTPREHHGLTSDEIRGLLRDAAALEIRAIDWLGGDPLVRPDWYELMQYARSLGLVNNVWTSGLPLKSKEVAARVHEVSEGGFVSVHVDSITPEVYAKLHRGGNPHFIEAIVEGVDNLLALGKPADMMINCITYTSLQGPEDAIKTMRWWFCEKGLRTCLTMFNPAGMGAEWRSLEPQLDEVQRVYTERDRIDYGGDNISIAAMDTDKYYCGTMATVTFTGDVTPCSVIREGVANIRTTPFRDIVARHLDTLVHAALHDVQNLPNPCNDCVNNAHCWGCRASAYHYSGDADGLDPKCWLIRTALTSDSFSVNNNLQKSTDEEIGLKP | not soluble
13 | MRGSHHHHHHGSPPAAPITLWTGPGPSINGFINDTPVIRCFICLTRDSNLVTVNASFVGEGGYRIVSPTQSQFSLIMEFDQFGQLMSTGNINSTTTWGEKPWGNNTVQPRPSHTWKLCMPNREVYSTPAATISRCGLDSIAVDGAPSRSIDCMLIINKPKGVATYTLTFRFLNFNRLSGGTLFKTDVLTFTYVGENQ | soluble
14 | MKKYSILLLPFILASCAPVSESQFTEQRLSELEIKVAKLEERQEKIEEQLEEINKRLDYITKSIAKREIKSYKEPEEEKPPFEEVKSTEDEKAEYENALELYKMKQLNEARDAFVEFIKKYPNSKYTDNAYFWLGKTFYELGNTERAKQIFNVLIKKCKSGELPDCNKLPDTYFMLVKISLDEGNIEEANRYLSILEEKFPDAEATQRAKELIYKTP | not soluble
15 | GMTGHIDPTKEVFAQFRANDREGPIHMLNLVRLRPRAAYPDGRETTGAEAYAAYGRDSGPVSERLGGKVVWQGQFELMLIGPQDEHWDHVFIAEYPSVAAFVEMIRDPVYREAVKHRQAAVEDSRLIRLKPLKPGKGFGEIPT | soluble
16 | MQSVTPTSQYLKALNEGSHQPDDVQKEAVSRLEIIYQELINSRPPAPRTSGLMARVGKLWGKREDTKHTPVRGLYMWGGVGRGKTWLMDLFYQSLPGERKQRLHFHRFMLRVHEELTALQGQTDPLEIIADRFKAETDVLCFDEFFVSDITDAMLLGGLMKALFTRGITLVATSNIPPDELYRNGLQRARFLPAIDAIKQHCDVMNVDAGVDYRLRTLTQAHLWLSPLNDETRAQMDKLWLALAGVKRENSPTLEINHRPLATMGVENQTLAVSFTTLCVDARSQHDYIALSRLFHTVMLFDVPVMTRLMESEARRFIALVDEFYERHVKLVVSAEVPLYEIYQGERLKFEFQRCLSRLQEMQSEEYLKLEHHHHHH | not soluble
17 | GYQPEKHAVVKSDRGDGRLLSTYAIVHEMLKDTHPQYAYRSGMSAQEFTQWQDGVRAAMVEIMKFPEIKRQPSPVCVKTEKKEGYILEKWEFYPFPKSVSTFLVLKPEHLKGAVPGVLCIPGSGRTKEGLVGEPGICDKLTEDYNNPKVSMALNMVKEGYVAVAVDNAAAGEASDLECYDKGWNYDYDVVSRFLLELGWSWLGYTSYLDMQVLNWMKAQSYIRKDRIVISGFSLGTEPMMVLGVLDKDIYAFVYNDFLCQTQERAVVMTKPDKENRRPFPNSIRHLIPGYWRYFNFPDVVASLAPRPIIFTEGGLDRDFRLVQSAYAASGKPENAEFHHYPKFADKAVRKDVEHLDEGLDSKTYFEAVNVDPPSHYFKNELVIPWLRKVLK | soluble
18 | MIKAIIFDVDETLVYYEGYSLREWYEKVGLPAMKELGVIVDWEIFRKMARGELPRSYVEKFQINHVKFWKALDEANRKYREELLKEGKVHTFKDVEALKEIKNLGIKLAAVSNASQDNTELVLRAFDLLKYFDVVYGKDYTYLDGVKPNPYLINKALKALNVEPKEAILVGDSELDIIAGKRAKLRVVQIVREKRVEGADVYINSLWELVDKLKTGEL | soluble
19 | ILRTKAQFVAMNEASLMQINHEWLQGTQSKQVTSQGETWQIDKRAESTISPNVQRIEIQVSLFDTQQNKVEAGITNLVFFNYPQKENAS | not soluble
